Measurements: paper PMC4011751, “Recombinant Expression and Characterization of the Cytoplasmic Rice β-Glucosidase Os1BGlu4” (PLoS ONE, 2014)
Each block holds one molecule with its values, some of them ahead of it.

Experiments:
rOs1BGlu4 = target: T1, rOs1BGlu4 (Oryza sativa, UniProt Q5N863); assay: inhibition of pNPGlc hydrolysis, […] nm; format: biochemical; settings: read-out: Relative activity remaining (%)
T1 construct: gene BGLU4; full-length ORF (483 aa, no signal peptide, about 55 kDa) in pET32a(+), E. coli Origami B(DE3); Trx-His6 tag removed with enterokinase
T1 sequence (Q5N863 1-483): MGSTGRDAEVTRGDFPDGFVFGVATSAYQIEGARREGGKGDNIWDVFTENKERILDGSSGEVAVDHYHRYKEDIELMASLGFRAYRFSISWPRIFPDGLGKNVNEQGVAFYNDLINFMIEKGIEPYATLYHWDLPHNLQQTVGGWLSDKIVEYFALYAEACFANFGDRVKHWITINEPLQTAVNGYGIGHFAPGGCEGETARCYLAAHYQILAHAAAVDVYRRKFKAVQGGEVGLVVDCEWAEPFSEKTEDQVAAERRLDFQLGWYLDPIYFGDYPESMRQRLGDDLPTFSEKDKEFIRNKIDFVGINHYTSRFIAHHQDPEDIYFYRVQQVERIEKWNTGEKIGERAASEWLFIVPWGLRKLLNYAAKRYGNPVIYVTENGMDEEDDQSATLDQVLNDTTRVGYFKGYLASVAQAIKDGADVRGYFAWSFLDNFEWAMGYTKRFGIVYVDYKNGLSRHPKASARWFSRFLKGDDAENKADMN

purified protein [1] = substrate: O=[N+]([O-])c1ccc(O[C@@H]2O[C@H](CO)[C@H](O)[C@H](O)[C@H]2O)cc1; assay: purified protein; settings: 50 mM sodium phosphate pH 6.5, 30°C (standard assay)
purified protein [2] = substrate: O=[N+]([O-])c1ccc(O[C@@H]2O[C@H](CO)[C@@H](O)[C@H](O)[C@H]2O)cc1; assay: purified protein; settings: 50 mM sodium phosphate pH 6.5, 30°C (standard assay)
purified protein [3] = substrate: O=[N+]([O-])c1ccc(O[C@@H]2O[C@H](CO)[C@@H](O)[C@H](O)[C@@H]2O)cc1; assay: purified protein; settings: 50 mM sodium phosphate pH 6.5, 30°C (standard assay)
purified protein [4] = substrate: O=[N+]([O-])c1ccc(O[C@@H]2OC[C@H](O)[C@H](O)[C@H]2O)cc1; assay: purified protein; format: biochemical, Oryza sativa; settings: 50 mM sodium phosphate pH 6.5, 30°C (standard assay)
purified protein [5] = substrate: C[C@H]1O[C@@H](Oc2ccc([N+](=O)[O-])cc2)[C@H](O)[C@@H](O)[C@H]1O; assay: purified protein; format: biochemical, Oryza sativa; settings: 50 mM sodium phosphate pH 6.5, 30°C (standard assay)
[6] = substrate: O=[N+]([O-])c1ccc(O[C@@H]2O[C@H](CO)[C@@H](O[C@@H]3O[C@H](CO)[C@@H](O)[C@H](O)[C@H]3O)[C@H](O)[C@H]2O)cc1; assay: initial-rate hydrolysis, glucose release by peroxidase/glucose oxidase assay, nonlinear Michaelis-Menten fit; format: biochemical, Oryza sativa; settings: 50 mM sodium phosphate pH 6.5, 30°C (standard assay)

remaining activity at 10000 µM (rOs1BGlu4): 93%
Molecule: OC[C@H]1OC(O)[C@H](O)[C@@H](O)[C@H]1O (stereo partly drawn) [D-Galactose]

remaining activity at 10000 µM (rOs1BGlu4): 85%
Molecule: OC1OC[C@@H](O)[C@H](O)[C@H]1O (stereo partly drawn) [D-Xylose]

remaining activity at 10000 µM (rOs1BGlu4): 61%
Molecule: OC1OC[C@H](O)[C@H](O)[C@H]1O (stereo partly drawn) [L-Arabinose]

remaining activity at 1000 µM (rOs1BGlu4): 14%
Molecule: O=C1O[C@H](CO)[C@@H](O)[C@H](O)[C@H]1O [δ-glucono-lactone]

remaining activity at 10000 µM (rOs1BGlu4): 73%
Molecule: OC[C@H]1OC(O)[C@@H](O)[C@@H](O)[C@@H]1O (stereo partly drawn) [D-Mannose]

Molecule: N[C@H]1C(O)O[C@H](CO)[C@@H](O)[C@@H]1O (stereo partly drawn) [D-Glucosamine]
remaining activity at 10000 µM (rOs1BGlu4): 84%

remaining activity at 10000 µM (rOs1BGlu4): 90%
Molecule: OC[C@H]1OC(O)[C@H](O)[C@@H](O)[C@@H]1O (stereo partly drawn) [D-Glucose]

B1: rOs1BGlu4 (Oryza sativa Japonica Group) (protein)
chain: T1 sequence (Q5N863 1-483)
notes: full-length ORF (483 aa, no signal peptide, about 55 kDa) in pET32a(+), E. coli Origami B(DE3); Trx-His6 tag removed with enterokinase
Km (purified protein [1]): 7330 ± 320 µM | kcat (purified protein [1]): 3.16 s⁻¹ | kcat/Km (purified protein [1]): 430 M⁻¹ s⁻¹ | Km (purified protein [2]): 710 ± 20 µM | kcat (purified protein [2]): 12.8 s⁻¹ | kcat/Km (purified protein [2]): 17900 M⁻¹ s⁻¹ | Km (purified protein [3]): 2240 ± 30 µM | kcat (purified protein [3]): 1.25 s⁻¹ | kcat/Km (purified protein [3]): 560 M⁻¹ s⁻¹ | Km (purified protein [4]): 380 ± 20 µM | kcat (purified protein [4]): 0.52 s⁻¹ | kcat/Km (purified protein [4]): 1370 M⁻¹ s⁻¹ | Km (purified protein [5]): 710 ± 20 µM | kcat (purified protein [5]): 6.61 ± 0.08 s⁻¹ | kcat/Km (purified protein [5]): 9340 M⁻¹ s⁻¹ | Km [6]: 140 ± 10 µM | kcat [6]: 3.44 ± 0.18 s⁻¹ | kcat/Km [6]: 24400 M⁻¹ s⁻¹
